T1: PDZD7_3, Q9H5P4
T1 sequence (Q9H5P4 857-944, limits assumed, looked up): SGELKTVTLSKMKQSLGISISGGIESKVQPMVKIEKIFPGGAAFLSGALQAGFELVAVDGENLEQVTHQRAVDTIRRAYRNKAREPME

T2: PTPN13_1, Q12923
T2 sequence (Q12923 1088-1188, limits assumed, looked up): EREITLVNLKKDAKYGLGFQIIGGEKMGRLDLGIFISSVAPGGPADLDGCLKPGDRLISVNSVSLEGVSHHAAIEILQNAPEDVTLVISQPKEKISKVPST

T3: DFNB31_1, Q9P202
T3 sequence (Q9P202 135-233, limits assumed, looked up): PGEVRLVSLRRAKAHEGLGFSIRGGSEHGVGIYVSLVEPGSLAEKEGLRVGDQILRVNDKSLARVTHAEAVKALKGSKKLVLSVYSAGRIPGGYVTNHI

T4: MPP6, Q9NZW5
T4 sequence (Q9NZW5 125-219, limits assumed, looked up): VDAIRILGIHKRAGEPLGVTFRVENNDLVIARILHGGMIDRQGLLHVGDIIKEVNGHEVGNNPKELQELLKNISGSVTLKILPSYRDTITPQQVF

T5: DFNB31_3, Q9P202
T5 sequence (Q9P202 811-907, limits assumed, looked up): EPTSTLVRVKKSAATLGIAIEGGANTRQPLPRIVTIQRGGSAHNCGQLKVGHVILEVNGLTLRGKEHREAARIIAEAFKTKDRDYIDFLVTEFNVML

T6: GRIP1_3, Q9Y3R0
T6 sequence (Q9Y3R0 247-346, limits assumed, looked up): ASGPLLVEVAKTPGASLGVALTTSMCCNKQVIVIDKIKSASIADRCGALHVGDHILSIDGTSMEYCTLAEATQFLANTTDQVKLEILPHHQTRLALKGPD

T7: SHANK1, Q9Y566
T7 sequence (Q9Y566 658-767, limits assumed, looked up): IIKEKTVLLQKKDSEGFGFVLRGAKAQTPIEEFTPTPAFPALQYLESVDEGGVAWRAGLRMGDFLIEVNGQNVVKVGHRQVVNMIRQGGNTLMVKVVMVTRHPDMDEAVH

T8: GRIP1_7, Q9Y3R0
T8 sequence (Q9Y3R0 999-1096, limits assumed, looked up): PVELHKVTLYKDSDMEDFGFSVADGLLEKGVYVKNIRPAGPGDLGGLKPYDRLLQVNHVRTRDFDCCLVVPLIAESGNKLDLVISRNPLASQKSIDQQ

T9: MPDZ_12, O75970
T9 sequence (O75970 1857-1958, limits assumed, looked up): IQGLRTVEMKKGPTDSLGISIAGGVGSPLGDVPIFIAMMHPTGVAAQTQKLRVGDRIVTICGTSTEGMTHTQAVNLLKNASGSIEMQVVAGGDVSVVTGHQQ

T10: APBA1_2, Q02410
T10 sequence (Q02410 742-832, limits assumed, looked up): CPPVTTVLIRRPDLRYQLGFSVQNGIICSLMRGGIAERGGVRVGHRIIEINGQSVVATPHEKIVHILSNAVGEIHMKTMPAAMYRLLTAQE

T11: SYNJ2BP, P57105
T11 sequence (P57105 8-110, limits assumed, looked up): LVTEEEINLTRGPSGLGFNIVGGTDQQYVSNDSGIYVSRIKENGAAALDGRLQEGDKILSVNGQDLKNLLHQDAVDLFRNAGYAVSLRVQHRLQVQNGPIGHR

T12: APBA3_1, O96018
T12 sequence (O96018 389-490, limits assumed, looked up): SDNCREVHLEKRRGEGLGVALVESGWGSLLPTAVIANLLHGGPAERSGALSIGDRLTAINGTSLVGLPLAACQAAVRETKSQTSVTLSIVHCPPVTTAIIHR


These binders were tested against GRID2IP_1, A4D2P6 (assay: holdup assay). Conditions: plain residues with an end cap or a label only (N-terminal biotin on a linker: ado-ado).
GRID2IP_1, A4D2P6, sequence (A4D2P6 1-87): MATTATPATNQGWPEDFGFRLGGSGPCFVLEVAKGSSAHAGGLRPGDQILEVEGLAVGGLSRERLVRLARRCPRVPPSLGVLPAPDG
Set-up: key: below the threshold = too weak to quantify, mostly under pKd 3.1 to 4

Binder | pKd
VCMGDHWFDV [PRKN, O60260] | below the threshold
HLSTRQGTCV [ATRNL1, Q5VV63] | below the threshold

What follows are binders tested against PDZRN4_1, Q6ZMN7 (assay: holdup assay). Conditions: plain residues with an end cap or a label only (N-terminal biotin on a linker: ado-ado).
PDZRN4_1, Q6ZMN7, sequence (Q6ZMN7 213-318): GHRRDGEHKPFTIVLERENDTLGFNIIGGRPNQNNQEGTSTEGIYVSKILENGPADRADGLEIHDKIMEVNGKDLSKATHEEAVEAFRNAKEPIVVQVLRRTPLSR
Set-up: key: below the threshold = too weak to quantify, mostly under pKd 3.1 to 4

Binder | pKd
VCMGDHWFDV [PRKN, O60260] | below the threshold
HLSTRQGTCV [ATRNL1, Q5VV63] | 3.76

These binders were tested against TJP1_3, Q07157 (assay: holdup assay). Conditions: plain residues with an end cap or a label only (N-terminal biotin on a linker: ado-ado).
TJP1_3, Q07157, sequence (Q07157 416-512): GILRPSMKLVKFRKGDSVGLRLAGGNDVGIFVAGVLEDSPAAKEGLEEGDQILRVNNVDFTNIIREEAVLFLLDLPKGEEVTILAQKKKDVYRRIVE
Set-up: key: below the threshold = too weak to quantify, mostly under pKd 3.1 to 4

Binder | pKd
VCMGDHWFDV [PRKN, O60260] | below the threshold
HLSTRQGTCV [ATRNL1, Q5VV63] | below the threshold

What follows are binders tested against AHNAK1, Q09666 (assay: holdup assay). Conditions: plain residues with an end cap or a label only (N-terminal biotin on a linker: ado-ado).
AHNAK1, Q09666, sequence (Q09666 4-100): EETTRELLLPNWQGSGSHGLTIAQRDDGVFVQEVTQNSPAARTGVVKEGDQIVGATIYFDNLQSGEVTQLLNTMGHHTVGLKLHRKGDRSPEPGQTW
Set-up: key: below the threshold = too weak to quantify, mostly under pKd 3.1 to 4

Binder | pKd
VCMGDHWFDV [PRKN, O60260] | below the threshold
HLSTRQGTCV [ATRNL1, Q5VV63] | below the threshold

What follows are binders tested against T1, PDZD7_3, Q9H5P4 (assay: holdup assay). Conditions: plain residues with an end cap or a label only (N-terminal biotin on a linker: ado-ado).
Set-up: key: below the threshold = too weak to quantify, mostly under pKd 3.1 to 4

Binder | pKd
VCMGDHWFDV [PRKN, O60260] | below the threshold
HLSTRQGTCV [ATRNL1, Q5VV63] | 4.2

Each binder was assayed against T2, PTPN13_1, Q12923 (assay: holdup assay). Conditions: plain residues with an end cap or a label only (N-terminal biotin on a linker: ado-ado).
Set-up: key: below the threshold = too weak to quantify, mostly under pKd 3.1 to 4

Binder | pKd
VCMGDHWFDV [PRKN, O60260] | below the threshold
HLSTRQGTCV [ATRNL1, Q5VV63] | below the threshold

Each binder was assayed against FRMPD2_3, Q68DX3 (assay: holdup assay). Conditions: plain residues with an end cap or a label only (N-terminal biotin on a linker: ado-ado).
FRMPD2_3, Q68DX3, sequence (Q68DX3 1073-1166): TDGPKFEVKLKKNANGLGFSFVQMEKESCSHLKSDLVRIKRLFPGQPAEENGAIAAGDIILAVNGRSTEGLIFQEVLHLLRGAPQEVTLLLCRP
Set-up: key: below the threshold = too weak to quantify, mostly under pKd 3.1 to 4

Binder | pKd
VCMGDHWFDV [PRKN, O60260] | 3.58
HLSTRQGTCV [ATRNL1, Q5VV63] | below the threshold

Each binder was assayed against T3, DFNB31_1, Q9P202 (assay: holdup assay). Conditions: plain residues with an end cap or a label only (N-terminal biotin on a linker: ado-ado).
Set-up: key: below the threshold = too weak to quantify, mostly under pKd 3.1 to 4

Binder | pKd
VCMGDHWFDV [PRKN, O60260] | below the threshold
HLSTRQGTCV [ATRNL1, Q5VV63] | 3.51

The binders below were run against NHERF2_2, Q15599 (assay: holdup assay). Conditions: plain residues with an end cap or a label only (N-terminal biotin on a linker: ado-ado).
NHERF2_2, Q15599, sequence (Q15599 142-238): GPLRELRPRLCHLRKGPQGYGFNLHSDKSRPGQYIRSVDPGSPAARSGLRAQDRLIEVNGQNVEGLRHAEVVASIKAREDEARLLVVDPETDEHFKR
Set-up: key: below the threshold = too weak to quantify, mostly under pKd 3.1 to 4

Binder | pKd
VCMGDHWFDV [PRKN, O60260] | below the threshold
HLSTRQGTCV [ATRNL1, Q5VV63] | below the threshold

Each binder was assayed against T4, MPP6, Q9NZW5 (assay: holdup assay). Conditions: plain residues with an end cap or a label only (N-terminal biotin on a linker: ado-ado).
Set-up: key: below the threshold = too weak to quantify, mostly under pKd 3.1 to 4

Binder | pKd
VCMGDHWFDV [PRKN, O60260] | 4.01
HLSTRQGTCV [ATRNL1, Q5VV63] | below the threshold

What follows are binders tested against T5, DFNB31_3, Q9P202 (assay: holdup assay). Conditions: plain residues with an end cap or a label only (N-terminal biotin on a linker: ado-ado).
Set-up: key: below the threshold = too weak to quantify, mostly under pKd 3.1 to 4

Binder | pKd
VCMGDHWFDV [PRKN, O60260] | 3.54
HLSTRQGTCV [ATRNL1, Q5VV63] | below the threshold

The binders below were run against T6, GRIP1_3, Q9Y3R0 (assay: holdup assay). Conditions: plain residues with an end cap or a label only (N-terminal biotin on a linker: ado-ado).
Set-up: key: below the threshold = too weak to quantify, mostly under pKd 3.1 to 4

Binder | pKd
VCMGDHWFDV [PRKN, O60260] | below the threshold
HLSTRQGTCV [ATRNL1, Q5VV63] | below the threshold

Each binder was assayed against DLG4_3, P78352 (assay: holdup assay). Conditions: plain residues with an end cap or a label only (N-terminal biotin on a linker: ado-ado).
DLG4_3, P78352, sequence (P78352 306-403): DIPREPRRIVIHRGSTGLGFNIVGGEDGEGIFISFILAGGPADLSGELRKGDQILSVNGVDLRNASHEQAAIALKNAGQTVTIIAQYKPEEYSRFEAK
Set-up: key: below the threshold = too weak to quantify, mostly under pKd 3.1 to 4

Binder | pKd
VCMGDHWFDV [PRKN, O60260] | below the threshold
HLSTRQGTCV [ATRNL1, Q5VV63] | 3.87

These binders were tested against DLG4_2, P78352 (assay: holdup assay). Conditions: plain residues with an end cap or a label only (N-terminal biotin on a linker: ado-ado).
DLG4_2, P78352, sequence (P78352 155-259): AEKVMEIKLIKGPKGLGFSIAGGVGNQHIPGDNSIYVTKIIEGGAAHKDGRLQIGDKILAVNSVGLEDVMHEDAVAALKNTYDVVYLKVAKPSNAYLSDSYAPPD
Set-up: key: below the threshold = too weak to quantify, mostly under pKd 3.1 to 4

Binder | pKd
VCMGDHWFDV [PRKN, O60260] | below the threshold
HLSTRQGTCV [ATRNL1, Q5VV63] | 4.43

These binders were tested against T7, SHANK1, Q9Y566 (assay: holdup assay). Conditions: plain residues with an end cap or a label only (N-terminal biotin on a linker: ado-ado).
Set-up: key: below the threshold = too weak to quantify, mostly under pKd 3.1 to 4

Binder | pKd
VCMGDHWFDV [PRKN, O60260] | below the threshold
HLSTRQGTCV [ATRNL1, Q5VV63] | below the threshold

The binders below were run against T8, GRIP1_7, Q9Y3R0 (assay: holdup assay). Conditions: plain residues with an end cap or a label only (N-terminal biotin on a linker: ado-ado).
Set-up: key: below the threshold = too weak to quantify, mostly under pKd 3.1 to 4

Binder | pKd
VCMGDHWFDV [PRKN, O60260] | 3.56
HLSTRQGTCV [ATRNL1, Q5VV63] | below the threshold

The binders below were run against T9, MPDZ_12, O75970 (assay: holdup assay). Conditions: plain residues with an end cap or a label only (N-terminal biotin on a linker: ado-ado).
Set-up: key: below the threshold = too weak to quantify, mostly under pKd 3.1 to 4

Binder | pKd
VCMGDHWFDV [PRKN, O60260] | below the threshold
HLSTRQGTCV [ATRNL1, Q5VV63] | 3.67

What follows are binders tested against GRID2IP_2, A4D2P6 (assay: holdup assay). Conditions: plain residues with an end cap or a label only (N-terminal biotin on a linker: ado-ado).
GRID2IP_2, A4D2P6, sequence (A4D2P6 272-370): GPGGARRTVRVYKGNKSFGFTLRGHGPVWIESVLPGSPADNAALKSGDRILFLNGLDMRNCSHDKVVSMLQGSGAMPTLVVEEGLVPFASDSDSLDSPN
Set-up: key: below the threshold = too weak to quantify, mostly under pKd 3.1 to 4

Binder | pKd
VCMGDHWFDV [PRKN, O60260] | below the threshold
HLSTRQGTCV [ATRNL1, Q5VV63] | 4.05

Each binder was assayed against T10, APBA1_2, Q02410 (assay: holdup assay). Conditions: plain residues with an end cap or a label only (N-terminal biotin on a linker: ado-ado).
Set-up: key: below the threshold = too weak to quantify, mostly under pKd 3.1 to 4

Binder | pKd
VCMGDHWFDV [PRKN, O60260] | 3.92
HLSTRQGTCV [ATRNL1, Q5VV63] | 4.62

Each binder was assayed against MAGI1_1, Q96QZ7 (assay: holdup assay). Conditions: plain residues with an end cap or a label only (N-terminal biotin on a linker: ado-ado).
MAGI1_1, Q96QZ7, sequence (Q96QZ7 1-106): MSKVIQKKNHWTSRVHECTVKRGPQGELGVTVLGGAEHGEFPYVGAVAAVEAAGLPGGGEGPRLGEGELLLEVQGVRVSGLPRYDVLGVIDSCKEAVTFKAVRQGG
Set-up: key: below the threshold = too weak to quantify, mostly under pKd 3.1 to 4

Binder | pKd
VCMGDHWFDV [PRKN, O60260] | below the threshold
HLSTRQGTCV [ATRNL1, Q5VV63] | below the threshold

Each binder was assayed against DLG5_1, Q8TDM6 (assay: holdup assay). Conditions: plain residues with an end cap or a label only (N-terminal biotin on a linker: ado-ado).
DLG5_1, Q8TDM6, sequence (Q8TDM6 617-713): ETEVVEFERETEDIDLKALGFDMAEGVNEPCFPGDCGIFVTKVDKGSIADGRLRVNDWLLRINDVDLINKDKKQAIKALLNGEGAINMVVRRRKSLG
Set-up: key: below the threshold = too weak to quantify, mostly under pKd 3.1 to 4

Binder | pKd
VCMGDHWFDV [PRKN, O60260] | below the threshold
HLSTRQGTCV [ATRNL1, Q5VV63] | below the threshold

These binders were tested against T11, SYNJ2BP, P57105 (assay: holdup assay). Conditions: plain residues with an end cap or a label only (N-terminal biotin on a linker: ado-ado).
Set-up: key: below the threshold = too weak to quantify, mostly under pKd 3.1 to 4

Binder | pKd
VCMGDHWFDV [PRKN, O60260] | below the threshold
HLSTRQGTCV [ATRNL1, Q5VV63] | 5.37

What follows are binders tested against DLG1_1, Q12959 (assay: holdup assay). Conditions: plain residues with an end cap or a label only (N-terminal biotin on a linker: ado-ado).
Set-up: key: below the threshold = too weak to quantify, mostly under pKd 3.1 to 4

Binder | pKd
VCMGDHWFDV [PRKN, O60260] | below the threshold
HLSTRQGTCV [ATRNL1, Q5VV63] | 4.18

Each binder was assayed against Inadl_8, Q8NI35 (assay: holdup assay). Conditions: plain residues with an end cap or a label only (N-terminal biotin on a linker: ado-ado).
Inadl_8, Q8NI35, sequence (Q8NI35 1425-1530): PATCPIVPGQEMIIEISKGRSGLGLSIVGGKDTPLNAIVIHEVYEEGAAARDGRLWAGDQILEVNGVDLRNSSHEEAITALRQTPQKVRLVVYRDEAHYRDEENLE
Set-up: key: below the threshold = too weak to quantify, mostly under pKd 3.1 to 4

Binder | pKd
VCMGDHWFDV [PRKN, O60260] | 3.66
HLSTRQGTCV [ATRNL1, Q5VV63] | 4.25

Each binder was assayed against MAGI1_2, Q96QZ7 (assay: holdup assay). Conditions: plain residues with an end cap or a label only (N-terminal biotin on a linker: ado-ado).
MAGI1_2, Q96QZ7, sequence (Q96QZ7 456-580): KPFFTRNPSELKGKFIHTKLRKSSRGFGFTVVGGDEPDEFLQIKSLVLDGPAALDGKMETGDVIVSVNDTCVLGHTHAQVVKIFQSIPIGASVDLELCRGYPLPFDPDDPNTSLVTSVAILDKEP
Set-up: key: below the threshold = too weak to quantify, mostly under pKd 3.1 to 4

Binder | pKd
VCMGDHWFDV [PRKN, O60260] | below the threshold
HLSTRQGTCV [ATRNL1, Q5VV63] | 4.65

These binders were tested against T12, APBA3_1, O96018 (assay: holdup assay). Conditions: plain residues with an end cap or a label only (N-terminal biotin on a linker: ado-ado).
Set-up: key: below the threshold = too weak to quantify, mostly under pKd 3.1 to 4

Binder | pKd
VCMGDHWFDV [PRKN, O60260] | below the threshold
HLSTRQGTCV [ATRNL1, Q5VV63] | below the threshold

— paper PMC9482650, “Quantitative fragmentomics allow affinity mapping of interactomes” (Nature Communications, 2022)
